The substances below were run against F-actin (actin purified from chicken breast, polymerized and phalloidin-stabilized) (chicken) (UniProt P68139) (assay: co-sedimentation).

Stoichiometry N, 1:
6xHis-FLNaABD-A128V (from UniProt P21333 1-278) (domain or fragment)
6xHis-FLNaABD-E254K (domain or fragment)
6xHis-FLNaABD-Q170P (from UniProt P21333 1-278) (domain or fragment)
6xHis-FLNaABD-wt (human filamin A actin-binding domain, wild type) (from UniProt P21333 1-278) (domain or fragment)

Reference: article PMC6173970
